Source: patent US20020045205A1, “Method for autoactivation of procaspase 8” (priority 1998, published 2002)

Legend:
[1] = Cleavage of chromogenic and fluorogenic caspase substrates; type: biochemical, human; settings: substrates Ac-DEVD-pNA, Ac-IETD-pNA, Ac-DEVD-AMC
Source text: Enzyme activity of caspase 8 preparations was monitored using the chromogenic substrates Ac-DEVD-pNA or Ac-IETD-pNA or the fluorogenic substrates Ac-DEVD-AMC or Ac-IETD-AMC. For the chromogenic substrates, kinetic release of para-nitroaniline (pNA) was followed at 405 nm using either a Lambda 6 spectrophotometer or in a microtitre plate format using a Molecular Devices Thermomax plate reader with 405 nm wavelength filter. Kinetic enzyme assays monitoring the release of 7-amino-4-methyl-coumarin from the fluorogenic substrates were conducted using a Molecular Devices fmax plate reader with Ex=355 nm and Em=460 nm.

[2] = substrate: CC(=O)N[C@@H](CC(=O)O)C(=O)N[C@@H](CCC(=O)O)C(=O)N[C@H](C(=O)N[C@@H](CC(=O)O)C(=O)Nc1ccc([N+](=O)[O-])cc1)C(C)C; assay: Substrate Km in caspase 8 enzyme assay; type: biochemical, human; settings: other: 100 mM sodium phosphate/10 mM Tris/100 mM DTT, pH 7.50, 37° C., pH 7.5
Procedure: Unless otherwise indicated, all specific enzyme activity measurements described herein were made using the Ac-DEVD-pNA substrate. […] Initial rates were determined as follows: 100 μl of 1M DTT, 790 μl 100 mM sodium phosphate/10 mM Tris, pH 7.50, and 10 μl of caspase 8 sample solution (for protein concentrations near 0.5 mg/ml) were added to a quartz semi-micro cuvette.

activity against caspase substrates [1]	Molecule	Km [2]
no measurable activity	Concentrated, but unprocessed, protein: recombinant procaspase 8 polypeptide lacking the DED prodomain, with (His)6 tag, SEQ ID NO:1 (protein, listed as Homo sapiens, (His)6 tag) MRGSHHHHHHGSMTISDSPREQDSESQTLDKVYQMKSKPRGYCLIINNHNFAKAREKVPKLHSIRDRNGTHLDAGALTTTFEELHFEIKPHDDCTVEQIYEILKIYQLMDHSNMDCFICCILSHGDKGIIYGTDGQEAPIYELTSQFTGLKCPSLAGKPKVFFIQACQGDNYQKGIPVETDSEEQPYLEMDLSSPQTRYIPDEADFLLGMATVNNCVSYRNPAEGTWYIQSLCQSLRERCPRGDDILTILTEVNYEVSNKDDKKNMGKQMPQPTFTLRKKLVFPSD	
	caspase 8 (Homo sapiens) (protein, the 19 kDa peptide (S ^18PREQD . . . IPVETD^181); the 11 kDa chain (L^192SSPQ . . . LVFPSD^286); (His)6 (MRGS(H)6 leader, 12-residue prosegment from pQE30) (N, cleaved yes); made in house; host or cells: E. coli M15 (pREP4), vector pQE30) chain 1: SPREQDSESQTLDKVYQMKSKPRGYCLIINNHNFAKAREKVPKLHSIRDRNGTHLDAGALTTTFEELHFEIKPHDDCTVEQIYEILKIYQLMDHSNMDCFICCILSHGDKGIIYGTDGQEAPIYELTSQFTGLKCPSLAGKPKVFFIQACQGDNYQKGIPVETD chain 2: LSSPQTRYIPDEADFLLGMATVNNCVSYRNPAEGTWYIQSLCQSLRERCPRGDDILTILTEVNYEVSNKDDKKNMGKQMPQPTFTLRKKLVFPSD	167 µM
